Laboratory results from PMC9482650, “Quantitative fragmentomics allow affinity mapping of interactomes” (Nature Communications, 2022).

T1: APBA2_1, Q99767
T1 sequence (Q99767 563-664, limits assumed, looked up): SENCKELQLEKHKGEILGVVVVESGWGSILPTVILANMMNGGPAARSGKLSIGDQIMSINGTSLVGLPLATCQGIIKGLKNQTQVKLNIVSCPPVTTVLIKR

T2: APBA2_2, Q99767
T2 sequence (Q99767 654-744, limits assumed, looked up): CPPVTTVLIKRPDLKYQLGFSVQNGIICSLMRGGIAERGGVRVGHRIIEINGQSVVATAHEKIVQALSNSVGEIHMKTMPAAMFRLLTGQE

T3: ARHGEF11, O15085
T3 sequence (O15085 42-136, limits assumed, looked up): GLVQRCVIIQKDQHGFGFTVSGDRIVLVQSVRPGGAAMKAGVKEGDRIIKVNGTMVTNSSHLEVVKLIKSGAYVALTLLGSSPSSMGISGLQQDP

T4: DFNB31_1, Q9P202
T4 sequence (Q9P202 135-233, limits assumed, looked up): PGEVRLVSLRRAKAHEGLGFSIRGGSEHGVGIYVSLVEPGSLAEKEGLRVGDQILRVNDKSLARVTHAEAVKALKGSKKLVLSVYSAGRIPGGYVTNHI

T5: DLG3_3, Q92796
T5 sequence (Q92796 374-475, limits assumed, looked up): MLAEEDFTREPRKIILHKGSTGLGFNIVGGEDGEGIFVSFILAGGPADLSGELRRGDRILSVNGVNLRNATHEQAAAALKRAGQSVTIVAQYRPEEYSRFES

T6: GRIP1_2, Q9Y3R0
T6 sequence (Q9Y3R0 145-248, limits assumed, looked up): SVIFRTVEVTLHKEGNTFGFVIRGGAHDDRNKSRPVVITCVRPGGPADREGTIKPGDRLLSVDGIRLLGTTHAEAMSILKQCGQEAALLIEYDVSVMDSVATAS

T7: GRIP1_3, Q9Y3R0
T7 sequence (Q9Y3R0 247-346, limits assumed, looked up): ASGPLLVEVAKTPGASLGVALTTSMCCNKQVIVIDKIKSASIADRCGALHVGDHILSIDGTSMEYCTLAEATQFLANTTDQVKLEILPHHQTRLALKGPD

T8: GRIP1_7, Q9Y3R0
T8 sequence (Q9Y3R0 999-1096, limits assumed, looked up): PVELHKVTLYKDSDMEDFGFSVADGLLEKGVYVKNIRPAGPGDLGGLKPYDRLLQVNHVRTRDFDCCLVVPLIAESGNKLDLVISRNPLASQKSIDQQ

T9: LNX2_3, Q8N448
T9 sequence (Q8N448 463-564, limits assumed, looked up): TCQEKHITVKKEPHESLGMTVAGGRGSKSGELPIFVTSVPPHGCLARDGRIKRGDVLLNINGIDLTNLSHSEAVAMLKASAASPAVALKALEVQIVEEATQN

T10: MPP2, Q14168
T10 sequence (Q14168 180-250, limits assumed, looked up): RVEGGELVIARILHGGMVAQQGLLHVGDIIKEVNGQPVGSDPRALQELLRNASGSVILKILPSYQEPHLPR

T11: MPP6, Q9NZW5
T11 sequence (Q9NZW5 125-219, limits assumed, looked up): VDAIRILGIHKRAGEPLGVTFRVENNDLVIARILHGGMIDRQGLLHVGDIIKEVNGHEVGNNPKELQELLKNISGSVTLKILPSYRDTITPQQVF

T12: NHERF3_4, Q5T2W1
T12 sequence (Q5T2W1 373-468, limits assumed, looked up): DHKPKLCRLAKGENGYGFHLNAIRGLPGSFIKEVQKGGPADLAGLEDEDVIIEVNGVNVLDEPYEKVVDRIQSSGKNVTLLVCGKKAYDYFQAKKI

T13: SNTB1, Q13884
T13 sequence (Q13884 107-205, limits assumed, looked up): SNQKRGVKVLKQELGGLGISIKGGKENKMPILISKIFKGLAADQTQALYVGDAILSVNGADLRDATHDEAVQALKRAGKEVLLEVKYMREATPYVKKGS


How the values were obtained:
Test in all cases: holdup assay
Set-up in all cases: key: below the threshold = too weak to quantify, mostly under pKd 3.1 to 4
Settings in all cases: plain residues with an end cap or a label only (N-terminal biotin on a linker: ado-ado)
APBA2_1, Q99767 = target: T1, APBA2_1, Q99767
APBA2_2, Q99767 = target: T2, APBA2_2, Q99767
ARHGEF11, O15085 = target: T3, ARHGEF11, O15085
CASK, O14936 = target: CASK, O14936
DFNB31_1, Q9P202 = target: T4, DFNB31_1, Q9P202
DLG1_3, Q12959 = target: DLG1_3, Q12959
DLG3_3, Q92796 = target: T5, DLG3_3, Q92796
DLG4_1, P78352 = target: DLG4_1, P78352
GIPC2, Q8TF65 = target: GIPC2, Q8TF65
GORASP2, Q9H8Y8 = target: GORASP2, Q9H8Y8
GRID2IP_1, A4D2P6 = target: GRID2IP_1, A4D2P6
GRIP1_2, Q9Y3R0 = target: T6, GRIP1_2, Q9Y3R0
GRIP1_3, Q9Y3R0 = target: T7, GRIP1_3, Q9Y3R0
GRIP1_7, Q9Y3R0 = target: T8, GRIP1_7, Q9Y3R0
IL16_4, Q14005 = target: IL16_4, Q14005
LNX1_3, Q8TBB1 = target: LNX1_3, Q8TBB1
LNX2_3, Q8N448 = target: T9, LNX2_3, Q8N448
MAST2, Q6P0Q8 = target: MAST2, Q6P0Q8
MPP2, Q14168 = target: T10, MPP2, Q14168
MPP6, Q9NZW5 = target: T11, MPP6, Q9NZW5
NHERF3_4, Q5T2W1 = target: T12, NHERF3_4, Q5T2W1
NOS1, P29475 = target: NOS1, P29475
SNTB1, Q13884 = target: T13, SNTB1, Q13884
TJP1_3, Q07157 = target: TJP1_3, Q07157
Sequence of TJP1_3, Q07157 (Q07157 416-512): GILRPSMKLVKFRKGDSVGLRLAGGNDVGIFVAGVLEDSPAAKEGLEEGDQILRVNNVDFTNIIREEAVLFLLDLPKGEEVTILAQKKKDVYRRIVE

Sequence of DLG4_1, P78352 (P78352 62-152): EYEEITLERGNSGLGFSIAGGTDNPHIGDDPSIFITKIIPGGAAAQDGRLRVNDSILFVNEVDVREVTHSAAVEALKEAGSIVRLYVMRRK
Sequence of LNX1_3, Q8TBB1 (Q8TBB1 500-596): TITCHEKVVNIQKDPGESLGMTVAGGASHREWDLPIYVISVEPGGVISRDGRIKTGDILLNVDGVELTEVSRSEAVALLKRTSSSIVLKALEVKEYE
Sequence of DLG1_3, Q12959 (Q12959 457-571): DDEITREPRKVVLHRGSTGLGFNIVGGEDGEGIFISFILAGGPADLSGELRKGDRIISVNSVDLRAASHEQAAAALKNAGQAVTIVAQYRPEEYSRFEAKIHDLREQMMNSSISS
Sequence of MAST2, Q6P0Q8 (Q6P0Q8 1099-1202): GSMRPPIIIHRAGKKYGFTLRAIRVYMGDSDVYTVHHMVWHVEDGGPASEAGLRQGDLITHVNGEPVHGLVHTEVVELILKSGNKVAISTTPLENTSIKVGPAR
Sequence of CASK, O14936 (O14936 487-570): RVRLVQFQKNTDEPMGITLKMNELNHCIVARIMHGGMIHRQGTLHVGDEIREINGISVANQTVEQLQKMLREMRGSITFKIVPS
Sequence of NOS1, P29475 (P29475 9-101): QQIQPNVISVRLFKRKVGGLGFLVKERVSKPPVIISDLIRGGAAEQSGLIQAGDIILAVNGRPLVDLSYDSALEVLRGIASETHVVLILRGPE
Sequence of GIPC2, Q8TF65 (Q8TF65 112-203): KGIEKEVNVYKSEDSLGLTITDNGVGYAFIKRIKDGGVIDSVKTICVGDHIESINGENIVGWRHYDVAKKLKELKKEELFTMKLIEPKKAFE
Sequence of IL16_4, Q14005 (Q14005 1229-1329): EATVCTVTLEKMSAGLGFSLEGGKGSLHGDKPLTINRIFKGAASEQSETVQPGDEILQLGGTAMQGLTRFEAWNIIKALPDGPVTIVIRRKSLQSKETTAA
Sequence of GRID2IP_1, A4D2P6 (A4D2P6 1-87): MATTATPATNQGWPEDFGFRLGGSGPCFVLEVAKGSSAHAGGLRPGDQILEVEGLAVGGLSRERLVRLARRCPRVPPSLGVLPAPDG

| Binder | pKd (APBA2_1, Q99767) | pKd (APBA2_2, Q99767) | pKd (ARHGEF11, O15085) | pKd (CASK, O14936) | pKd (DFNB31_1, Q9P202) | pKd (DLG1_3, Q12959) | pKd (DLG3_3, Q92796) | pKd (DLG4_1, P78352) | pKd (GIPC2, Q8TF65) | pKd (GORASP2, Q9H8Y8) | pKd (GRID2IP_1, A4D2P6) | pKd (GRIP1_2, Q9Y3R0) | pKd (GRIP1_3, Q9Y3R0) | pKd (GRIP1_7, Q9Y3R0) | pKd (IL16_4, Q14005) | pKd (LNX1_3, Q8TBB1) | pKd (LNX2_3, Q8N448) | pKd (MAST2, Q6P0Q8) | pKd (MPP2, Q14168) | pKd (MPP6, Q9NZW5) | other results |
| --- | --- | --- | --- | --- | --- | --- | --- | --- | --- | --- | --- | --- | --- | --- | --- | --- | --- | --- | --- | --- | --- |
| TGLWKHETTV [ADGRA3, Q8IWK6] | below the threshold | below the threshold | 4.31 | below the threshold | 3.9 | 4.78 | 4.77 | 5.21 | 4.1 | 3.98 | below the threshold | below the threshold | below the threshold | below the threshold | below the threshold | below the threshold | below the threshold | 5.47 | below the threshold | below the threshold | pKd (NHERF3_4, Q5T2W1): below the threshold; pKd (NOS1, P29475): below the threshold; pKd (SNTB1, Q13884): 4.84; pKd (TJP1_3, Q07157): below the threshold |
| KPGKGSETVV [FZD4, Q9ULV1] | below the threshold | below the threshold | 3.69 | below the threshold | 3.91 | below the threshold | 4.02 | 4.85 | 3.57 | 4.24 | below the threshold | below the threshold | below the threshold | below the threshold | below the threshold | below the threshold | below the threshold | 4.91 | below the threshold | below the threshold | pKd (NHERF3_4, Q5T2W1): below the threshold; pKd (NOS1, P29475): 3.81; pKd (SNTB1, Q13884): 4.78; pKd (TJP1_3, Q07157): below the threshold |
| TRKRSGEAAV [PFKM, P08237] | below the threshold | below the threshold | below the threshold | below the threshold | below the threshold | below the threshold | below the threshold | below the threshold | below the threshold | 3.61 | below the threshold | below the threshold | below the threshold | below the threshold | 3.64 | below the threshold | below the threshold | 4.16 | below the threshold | below the threshold | pKd (NHERF3_4, Q5T2W1): below the threshold; pKd (NOS1, P29475): 4.16; pKd (SNTB1, Q13884): below the threshold; pKd (TJP1_3, Q07157): below the threshold |
| PYPTADHMLA [JUP, P14923] | below the threshold | below the threshold | below the threshold | below the threshold | below the threshold | below the threshold | below the threshold | below the threshold | below the threshold | below the threshold | below the threshold | below the threshold | below the threshold | below the threshold | below the threshold | below the threshold | below the threshold | below the threshold | below the threshold | below the threshold | pKd (NHERF3_4, Q5T2W1): below the threshold; pKd (NOS1, P29475): below the threshold; pKd (SNTB1, Q13884): below the threshold; pKd (TJP1_3, Q07157): below the threshold |

The next lines start with results.

| pKd (APBA2_1, Q99767) | pKd (APBA2_2, Q99767) | pKd (ARHGEF11, O15085) | pKd (CASK, O14936) | pKd (DFNB31_1, Q9P202) | pKd (DLG1_3, Q12959) | pKd (DLG3_3, Q92796) | pKd (DLG4_1, P78352) | pKd (GIPC2, Q8TF65) | pKd (GORASP2, Q9H8Y8) | pKd (GRID2IP_1, A4D2P6) | pKd (GRIP1_2, Q9Y3R0) | pKd (GRIP1_3, Q9Y3R0) | pKd (GRIP1_7, Q9Y3R0) | pKd (IL16_4, Q14005) | pKd (LNX1_3, Q8TBB1) | pKd (LNX2_3, Q8N448) | pKd (MAST2, Q6P0Q8) | pKd (MPP2, Q14168) | pKd (MPP6, Q9NZW5) | Binder | other results |
| --- | --- | --- | --- | --- | --- | --- | --- | --- | --- | --- | --- | --- | --- | --- | --- | --- | --- | --- | --- | --- | --- |
| below the threshold | below the threshold | 4.65 | below the threshold | 3.47 | below the threshold | below the threshold | 3.68 | below the threshold | 3.9 | below the threshold | below the threshold | below the threshold | below the threshold | below the threshold | below the threshold | below the threshold | 5.61 | below the threshold | below the threshold | AAVENKVTDL [PLXNB1, O43157] | pKd (NHERF3_4, Q5T2W1): 3.47; pKd (NOS1, P29475): below the threshold; pKd (SNTB1, Q13884): 4.63; pKd (TJP1_3, Q07157): below the threshold |
| 3.61 | below the threshold | 3.96 | below the threshold | below the threshold | 3.64 | 3.63 | below the threshold | below the threshold | 4.7 | below the threshold | 3.68 | below the threshold | below the threshold | below the threshold | below the threshold | below the threshold | 4.32 | below the threshold | 4.05 | SLNANEVEWF [RNF130, Q86XS8] | pKd (NHERF3_4, Q5T2W1): below the threshold; pKd (NOS1, P29475): 4; pKd (SNTB1, Q13884): below the threshold; pKd (TJP1_3, Q07157): below the threshold |
